In the DeepSol protein solubility set:

experiment: soluble on expression in E. coli; label from the status in PepcDB or PDB records

Soluble on expression in E. coli, not soluble:
NCHIFKTKAKESQGASPTLGQSEAYHRQNKPYEQQPYGFGVGKKMTSSSKSKVPIFKSFNLKSYQRNHYYSSKKERKHGSPDIDSLFHETNGASKVRMTDAGKMDTNSQFQEIWEILGKNAYTHKSYSEDPNSCLGSALSDHEEEEEAGKQQQQQQQQQQQQQHYGMTSKSSSPDEEKKNNKEPKRESRVSPEENGEEETGHKQFKLPKTSTFSSGSHDSNLQSPFYNHEYRHYARSKFECKNQFRKSVSPIKEIPATTSANEGWNILRDIIEKLNISNVDDRNKDLLFRRDEIGDKNHSDSIDIENLSIKEPKGMKRRKKDDISLEELFQSLPREKDYFMMDAINDSLESINLFKKPKTTQSHEQGGTFAQAESNRAKFKPLLEQCGITPEI, MSLKPFSEPIIRCAKARAYRIPTDRPEADGTFAWTDTTIVVATLDAGDAHGIGYTYTDASAAALIERMLAPALDGRSAFDIGGALAALRRAVRNVGRGGVAATAISALDAALWDAKAKLLGLPLAKLLGGVRDAVPVYGSGGFTSYDEHALRAQLEGWRAQGLHACKIKVGSAPRDDPARVRIARDALGGGVALFVDANGAFAPHDALAFAQRIAECDVRWFEEPVSADDIDGLRFVRERLAAGVDVAAGEYGYTLDDFRVLLASGALDVLQADATRCGGVSGFLEAATLADAFHRDLSAHCAPALHRHVCCAAPRVRHVEWFHDHARIERMLFDGAPTPRDGAIAPDMSRPGLGIELKAQDAARFAVEGHHHHHH, MWPPNAENNHCNYSYHEHAELNPHDHYHHHHYPHSSVHHTECYQTLSCPSDLPVETSYYNSVPPSYQDLGQTDLSPQFWCAEVDCVHERCSTKEIPHEQSKIFEEISKECDHIMNSAGDCEKCQVEHENGAQEAIPINDLVDIVMQTVDNLKKEGSSNDETKLLSRKRQQNKVAAARYRDKQKAKWQDLLDQLEAEEDRNQRLKLQAGHLEKEVAEMRQAFLAKLAKK, MAHHHHHHMAAYGIVESPDNVDYKTKCCCQTTDGVYFQVPKEYFRLHANLSRRKLLIAEPFGVPLDSSAFESLVVLLEKAAIVSPAAATAGTEVVSKGDGAKQQWIKDLNKRQQKFVGACLGVTTWDGADVYFYEEKLPKESDVVWVKVIQVNDTSAVVQLLEYGNHEGIIPYTEITRIRIRAIGKVIKVGKNEAAQVIRIDKDKGYIDLSKKQVTLKEAKDCEARFFKGNEVRSVVCHVADECGVPPAEAMKRIAYPLYRRQPGKHAWEWLYELNQTKDVKGILGDLEISEAEIKVLMTTLEHTMRTEIATIHADIEMTCFQCDGVNALREVLLVGRDFKAGKDPLIPISVTIVGPPKYRLRAKTELKEEGIVRMKEAIEMMKIEMAKRGGILKVVAGPFVLGEEEHTKEERNEDAEDDEGEDTD, MGSDKIHHHHHHMPMTNLAALSIPDLQQYAQGAVAAPFGLVLDDGSVLQSLEVVRRVPGKRLVCRGLLNGQAIYAKLFIGGQAGKYAARDKRGARWLAQARLATPTLLLESGVASQGCEALLYGAIPARNAEQVWQDLDEEGRHALALRLVEEVARHHRAGLLQTDLYLKNFLVDAQAVYTLDGDGIRQLRVFGRQRQQWDNLARLISKFDVDAVAAWLPSLLRQYVAVIGGGASDIDIMQQLIARHWRRDMRQYASKVQRSCTDVAVEEKPWHYLAINRAQDSPGVRQALATPDGLLDATSAVRLKSGNTCTVAAVEIDQRKMVIKRYNIKNFWHGLGRAWRPSRAVVSWSNAFRLQLKGIATPAAVAVLERRWLGLRREAYLLTEFMIARDAAEFYADLTIDREVKERVAQRIARLFFQLFCLQLEHGDFKATNILIRDQYPLLIDLDSMRQHACKKRFERRHARDLQRFFKNWQGDAATSQLLAAAFRAVYADGRVLDQAGIVFNQSEKDE, MMNIFILEDDFIQQTRIESIVVGILKETRIPCNQLEVFSTPQKLFESIQERGDHQLYFLDIEIGEYTRCGLELAAAIRQKDPNAVIVFVTTHSEFAPISFKYKVSALDFIDKAGGQKQFKEQIEECIRYTYDMMSSRESKDMFLFETPQTRLKLPYKDILYFATATTPHKVCLWTQTERLEFYGNLSEIQAVAPKLFLCHRSYLVNLDKVVRIDKSKQLLYFENGDSCMVSRLKMKCLFERWEALR, SRMMVIKNNSEETKSREYIVIGQVFFASSDKFIASFDFKEVIECVTIDLSAAHFWDITSASALDKVVVKFRREGTQVELIGMNQATKTIVDKFGVHDKPEEVEKLLAG, MGHHHHHHSHMANSAGSMANSAGSKEFAYQNKVEELTSYAVQIANEFQSGQVDMRRLYPYQDILSTRKTQFIIFNEEQQPYFLPEGFHHPPREQLKKSEWNKLKKGQTVTIRADGRFDDEVSLVAQPIFVQNEFKGAVLLISPISGVEQMVNQ, MNNVLILLDNPDDWKPYCETKSILTVSDYLKNKPVEKDRKLVINLSNDYSYNSEGYYCSLLAQTRGQRVIPDVDIINKLETGTGIRMDRSLQALCYQWIQKNGIKSDIWYLNIYFGKCREKGLERVARFIFENYPCPLLRVALNTHPKNQIESIQFLPLNRLDDEEQDFFANTLDNFNKKIWRAPKSAKAPRYSLAVLIDPKEKFPPSNKGALHKLSEVAKKMNIHVEMITEDDAMRLLEFDALFIRTTTSLNHYTFHLSQLAAQNGMVVIDDPLSIIRCTNKVYLKELFEKERIPAPKSTLIFQSNENSFEQISEQVGAPFILKIPDGSYSIGMKKVSNEEELKTSLELLFEKSAILLAQAFTPTEFDWRVGLLNGVPLYACKYYMAKGHWQIYCHYDSGRSRCGLVDTIPIYQVPRVVLDTAIKAANLIGKGLYGVDLKMVDDKAYVIEINDNPSIDHELEDAIIGDEMYYRLLNHFEQALEMKHY

Soluble on expression in E. coli, soluble:
MSLTALQQMTVLFVDDEEIAREQMKMVLSSFCKNTICVGSADQALAALQEHHPDIVLTDIRMPGLSGIELLNAVKQKDASVAVVIVSAHSESEYLLDAFRYKADGYLLKPFNFHEMLELLSDIATQKEAASSERKQGPDNRDFLLKILDTLGGRRAEIMEYVINHLDADNLFHGTYDEVAEALSASKPTVVATFQIMLEKNVLTRLKYGTYRMNVDATEGHHHHHH, MTNTLVENIYASVTHNISKKEASKNEKTKAVLNQAVADLSVAASIVHQVHWYMRGPGFLYLHPKMDELLDSLNANLDEVSERLITIGGAPYSTLAEFSKHSKLDEAKGTYDKTVAQHLARLVEVYLYLSSLYQVGLDITDEEGDAGTNDLFTAAKTEAEKTIWMLQAERGQGPAL, MSLSDSQTLVVKLGTSVLTGGSRRLNRAHIVELVRQCAQLHAAGHRIVIVTSGAIAAGREHLGYPELPATIASKQLLAAVGQSRLIQLWEQLFSIYGIHVGQMLLTRADMEDRERFLNARDTLRALLDNNIVPVINENDAVATAAIKVGDNDNLSALAAILAGADKLLLLTDQKGLYTADPRSNPQAELIKDVYGIDDALRAIAGDSVSGLGTGGMSTKLQAADVACRAGIDTIIAAGSKPGVIGDVMEGISVGTLFHAQATPLENRKRWIFGAPPAGEITVDEGATAAILERGSSLLPKGIKSVTGNFSRGEVIRICNLEGRDIAHGVSRYNSDALRRIAGHHSQEIDAILGYEYGPVAVHRDDMITREGHHHHHH, MASTVLNVPIAQPENGSSDKIPKWSARAIKSLAMGELEARKLKYPSTGTEAILMGILVEGTSTVAKFLRGNGVTLFKVRDETLSLLGKSDMYFFSPEHPPLTEPAQKAIAWAIDEKNKSDVDGELTTAYLLLGVWSQKDSAGRQILEKLGFNEDKAKEVEKSMNEDVDLSFKKQGQLEHHHHHH, MPKIRIKLRGFDHKTLDASAQKIVEAARRSGAQVSGPIPLPTRVRRFTVIRGPFKHKDSREHFELRTHNRLVDIINPNRKTIEQLMTLDLPTGVEIEIKTVGGGR, MGHHHHHHMAGGGKHTPTPKAIIHQKFGAKASYTVEEVHDSSQSGCPGLAIPQKGPCLYRCHLQLPEFSVVSNVFKKKKDSEQSAAELALDKLGIRPQNDDLTVDEARDEIVGRIKYIFSDEFLSAEHPLGAHLRAALRRDGERCGSVPVSVIATVDAKINSRCKIINPSVESDPFLAISYVMKAAAKLADYIVASPHGLRRKNAYPSEIVEALATHVSDSLHSREVAAVYIPCIDEEVVELDTLYISSNRHYLDSIAERLGLKDGNQVMISRMFGKASCGSECRLYSEIPKKYLDNSSDASGTSNEDSSHIVKSRNARASYICGQDIHGDAILASVGYRWKSDDLDYDDVTVNSFYRICCGMSPNGIYKISRQAVIAAQLPFAFTTKSNWRGPLPREILGLFCHQHRLAEPILSSSTAPVKSLSDIFRSHKKLKVSGVDDANENLSRQKEDTPGLGHGFRCEVKIFTKSQDLVLECSPRKFYEKENDAIQNASLKALLWFSKFFADLDVDGEQSCDTDDDQDTKSSSPNVFAAPPILQKEHSSESKNTNVLSAEKRVQSITNGSVVSICYSLSLAVDPEYSSDGESPREDNESNEEMESEYSANCESSVEPIESNEEIEFEVGTGSMNPHIESEVTQMTVGEYASFKMTPPDAAEALILAVGSDTVRIRSLLSERPCLNYNILLLGVKGPSEERMEAAFFKPPLSKQRVEYALKHIRESSASTLVDFGCGSGSLLDSLLDYPTSLQTIIGVDISPKGLARAAKMLHVKLNKEACNVKSATLYDGSILEFDSRLHDVDIGTCLEVIEHMEEDQACEFGEKVLSLFHPKLLIVSTPNYEFNTILQRSTPETQEENNSEPQLPKFRNHDHKFEWTREQFNQWASKLGKRHNYSVEFSGVGGSGEVEPGFASQIAIFRREASSVENVAESSMQPYKVIWEWKKEDVEKKKTDL, MIEVKHLKTLQALRNCGSLAAAAATLHQTQSALSHQFSDLEQRLGFRLFVRKSQPLRFTPQGEILLQLANQVLPQISQALQACNEPQQTRLRIAIECHSCIQWLTPALENFHKNWPQVEMDFKSGVTFDPQPALQQGELDLVMTSDILPRSGLHYSPMFDYEVRLVLAPDHPLAAKTRITPEDLASETLLIYPVQRSRLDVWRHFLQPAGVSPSLKSVDNTLLLIQMVAARMGIAALPHWVVESFERQGLVVTKTLGEGLWSRLYAAVRDGEQRQPVTEAFIRSARNHACDHLPFVKSAERPTYDAPTVRPGSPARL, MSLNQNPVEEGQKFPLTIRRMGINGEGIGYFKKAVVFVPGAITGEEVVVEAVKVRDRFTEAKLNKIRKKSPNRVTAPCPVYEACGGCQLQHVAYSAQLELKRDIVIQSIEKHTKIDPTKLKIRPTIGMEDPWRYRNKSQFQTRMVGSGQVETGLFGANSHQLVPIEDCIVQQPVTIKVTNFVRDLLEKYGVPIYDEKAGSGIVRTIVVRTGVKTGETQLVFITNSKKLPKKREMLAEIEAALPEVTSIMQNVNQAKSSLIFGDETFLLAGKESIEEKLMELEFDLSARAFFQLNPFQTERLYQEVEKALVLTGSETLVDAYCGVGTIGQAFAGKVKEVRGMDIIPESIEDAKRNAEKNGIENVYYEVGKAEDVLPKWVKEGFRPDAVIVDPPRSGCDQGLIKSLLDVEAKQLVYVSCNPSTLARDLALLAKKYRIRYMQPVDMFPQTAHVETVVLLQLKDKEGHHHHHH, MSLQEVKKTYFVSKPGTLISMMTEEEANQVTHLTLTGKINAVDFRHLRDEFKNLQVLDIANASISMYSGKEGTYPDKFYIYMPNFVPAYAFCKMENGTAKGKSTLKKIILSEKIKNIEDAAFMGCENLNICQIKKKTPPNLLPEALADSITAIFVPLGASDEYRLKNRWDNFAFIEGEPLEAKIEVGALSTLENEIQKAGLQPKEINFLTIEGKLDAADFKLIRDYMPNLVAVDIEKTNATAIPDFTFSQKKYLLRIRLPHGLKSIGQRAFSNCGRLCGTVELPESITAIEYGAFMGCDRLRYVVAHGDKITTIGDNLFGEGKNKLIYKREGHHHHHH
